# According to patent publication US11524977 (JIANGSU UNIVERSITY, dated 2022):
# Target: Angiotensin converting enzyme (ACE EC 3.4.15.1)
# Experiment: cell-based or functional assay
row,Binder,IC50 of ACE inhibitory activity [µg/mL]
1,APY [Ala-Pro-Tyr (APY)],19.1
2,LSLP [Leu-Ser-Leu-Pro (LSLP)],71.1
3,LQPP [Leu-Gln-Pro-Pro (LQPP)],14.2
